In patent publication US20210252150A1:

Columns and labels:
[1] = molecular target: HA of A/Solomon Islands/03/2006 (H1N1) (influenza A virus (H1N1))
[2] = molecular target: HA of A/Texas/36/1991 (H1N1) (influenza A virus (H1N1))
[3] = molecular target: HA of A/Texas/50/2012 (H3N2) (influenza A virus (H3N2))

Substance	EC50 [1] [µg/mL]	EC50 [2] [µg/mL]	EC50 [3] [µg/mL]	EC50 fold over wild-type rFluA-20 [1] [fold]
rFluA-20 heavy chain mutant C101A (antibody)	0.2	0.15	0.39	–
rFluA-20 light chain mutant N53A (antibody)	0.05	0.04	0.09	–
rFluA-20 light chain mutant Q55A (antibody)	–	0.23	–	> 100
